# Test results: IntAct's records for PubMed 16368681
# B1: Protein disulfide-isomerase (Saccharomyces cerevisiae), P17967 (parent)
# chain: MKFSAGAVLSWSSLLLASSVFAQQEAVAPEDSAVVKLATDSFNEYIQSHDLVLAEFFAPWCGHCKNMAPEYVKAAETLVEKNITLAQIDCTENQDLCMEHNIPGFPSLKIFKNSDVNNSIDYEGPRTAEAIVQFMIKQSQPAVAVVADLPAYLANETFVTPVIVQSGKIDADFNATFYSMANKHFNDYDFVSAENADDDFKLSIYLPSAMDEPVVYNGKKADIADADVFEKWLQVEALPYFGEIDGSVFAQYVESGLPLGYLFYNDEEELEEYKPLFTELAKKNRGLMNFVSIDARKFGRHAGNLNMKEQFPLFAIHDMTEDLKYGLPQLSEEAFDELSDKIVLESKAIESLVKDFLKGDASPIVKSQEIFENQDSSVFQLVGKNHDEIVNDPKKDVLVLYYAPWCGHCKRLAPTYQELADTYANATSDVLIAKLDHTENDVRGVVIEGYPTIVLYPGGKKSESVVYQGSRSLDSLFDFIKENGHFDVDGKALYEEAQEKAAEEADADAELADEEDAIHDEL
# B2: Protein disulfide-isomerase (Saccharomyces cerevisiae), P17967 (parent)
# chain: B1 chain
# partner: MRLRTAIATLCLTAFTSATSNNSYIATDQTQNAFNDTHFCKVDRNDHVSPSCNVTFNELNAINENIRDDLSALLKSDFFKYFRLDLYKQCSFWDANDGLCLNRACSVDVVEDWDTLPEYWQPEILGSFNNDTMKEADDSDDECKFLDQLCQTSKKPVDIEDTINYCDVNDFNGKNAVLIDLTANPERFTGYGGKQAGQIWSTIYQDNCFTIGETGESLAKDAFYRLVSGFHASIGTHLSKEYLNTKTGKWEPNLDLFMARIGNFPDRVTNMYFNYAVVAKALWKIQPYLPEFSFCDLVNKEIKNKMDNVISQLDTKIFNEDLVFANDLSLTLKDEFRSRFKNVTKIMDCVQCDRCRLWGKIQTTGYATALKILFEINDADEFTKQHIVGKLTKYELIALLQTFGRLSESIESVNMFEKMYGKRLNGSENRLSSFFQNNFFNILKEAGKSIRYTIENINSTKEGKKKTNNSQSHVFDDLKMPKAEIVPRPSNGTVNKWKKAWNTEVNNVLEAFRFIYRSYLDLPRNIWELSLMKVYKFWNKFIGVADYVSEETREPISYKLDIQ
# Variants of: B1
# Details: with rnas1_bovin RNASE1, P61823
# Chain of rnas1_bovin RNASE1, P61823 (P61823 whole entry): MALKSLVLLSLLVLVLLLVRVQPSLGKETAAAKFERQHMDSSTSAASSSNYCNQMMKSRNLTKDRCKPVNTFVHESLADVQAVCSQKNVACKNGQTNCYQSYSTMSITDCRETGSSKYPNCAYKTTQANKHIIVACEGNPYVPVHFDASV
row,effect of a mutation on the interaction,Variant
1,decreasing interaction,MKFSAGAVLSWSSLLLASSVFAQQEAVAPEDSAVVKLATDSFNEYIQSHDLVLAEFFAPWAGHAKNMAPEYVKAAETLVEKNITLAQIDCTENQDLCMEHNIPGFPSLKIFKNSDVNNSIDYEGPRTAEAIVQFMIKQSQPAVAVVADLPAYLANETFVTPVIVQSGKIDADFNATFYSMANKHFNDYDFVSAENADDDFKLSIYLPSAMDEPVVYNGKKADIADADVFEKWLQVEALPYFGEIDGSVFAQYVESGLPLGYLFYNDEEELEEYKPLFTELAKKNRGLMNFVSIDARKFGRHAGNLNMKEQFPLFAIHDMTEDLKYGLPQLSEEAFDELSDKIVLESKAIESLVKDFLKGDASPIVKSQEIFENQDSSVFQLVGKNHDEIVNDPKKDVLVLYYAPWCGHCKRLAPTYQELADTYANATSDVLIAKLDHTENDVRGVVIEGYPTIVLYPGGKKSESVVYQGSRSLDSLFDFIKENGHFDVDGKALYEEAQEKAAEEADADAELADEEDAIHDEL [C61A;C64A]
2,decreasing interaction,MKFSAGAVLSWSSLLLASSVFAQQEAVAPEDSAVVKLATDSFNEYIQSHDLVLAEFFAPWCGHCKNMAPEYVKAAETLVEKNITLAQIDCTENQDLCMEHNIPGFPSLKIFKNSDVNNSIDYEGPRTAEAIVQFMIKQSQPAVAVVADLPAYLANETFVTPVIVQSGKIDADFNATFYSMANKHFNDYDFVSAENADDDFKLSIYLPSAMDEPVVYNGKKADIADADVFEKWLQVEALPYFGEIDGSVFAQYVESGLPLGYLFYNDEEELEEYKPLFTELAKKNRGLMNFVSIDARKFGRHAGNLNMKEQFPLFAIHDMTEDLKYGLPQLSEEAFDELSDKIVLESKAIESLVKDFLKGDASPIVKSQEIFENQDSSVFQLVGKNHDEIVNDPKKDVLVLYYAPWAGHAKRLAPTYQELADTYANATSDVLIAKLDHTENDVRGVVIEGYPTIVLYPGGKKSESVVYQGSRSLDSLFDFIKENGHFDVDGKALYEEAQEKAAEEADADAELADEEDAIHDEL [C406A;C409A]

# Variants of: B2
# Details: with ero1_yeast ERO1, Q03103
row,effect of a mutation on the interaction,Variant
1,decreasing interaction,MKFSAGAVLSWSSLLLASSVFAQQEAVAPEDSAVVKLATDSFNEYIQSHDLVLAEFFAPWAGHAKNMAPEYVKAAETLVEKNITLAQIDCTENQDLCMEHNIPGFPSLKIFKNSDVNNSIDYEGPRTAEAIVQFMIKQSQPAVAVVADLPAYLANETFVTPVIVQSGKIDADFNATFYSMANKHFNDYDFVSAENADDDFKLSIYLPSAMDEPVVYNGKKADIADADVFEKWLQVEALPYFGEIDGSVFAQYVESGLPLGYLFYNDEEELEEYKPLFTELAKKNRGLMNFVSIDARKFGRHAGNLNMKEQFPLFAIHDMTEDLKYGLPQLSEEAFDELSDKIVLESKAIESLVKDFLKGDASPIVKSQEIFENQDSSVFQLVGKNHDEIVNDPKKDVLVLYYAPWCGHCKRLAPTYQELADTYANATSDVLIAKLDHTENDVRGVVIEGYPTIVLYPGGKKSESVVYQGSRSLDSLFDFIKENGHFDVDGKALYEEAQEKAAEEADADAELADEEDAIHDEL [C61A;C64A]
2,decreasing interaction,MKFSAGAVLSWSSLLLASSVFAQQEAVAPEDSAVVKLATDSFNEYIQSHDLVLAEFFAPWCGHCKNMAPEYVKAAETLVEKNITLAQIDCTENQDLCMEHNIPGFPSLKIFKNSDVNNSIDYEGPRTAEAIVQFMIKQSQPAVAVVADLPAYLANETFVTPVIVQSGKIDADFNATFYSMANKHFNDYDFVSAENADDDFKLSIYLPSAMDEPVVYNGKKADIADADVFEKWLQVEALPYFGEIDGSVFAQYVESGLPLGYLFYNDEEELEEYKPLFTELAKKNRGLMNFVSIDARKFGRHAGNLNMKEQFPLFAIHDMTEDLKYGLPQLSEEAFDELSDKIVLESKAIESLVKDFLKGDASPIVKSQEIFENQDSSVFQLVGKNHDEIVNDPKKDVLVLYYAPWAGHAKRLAPTYQELADTYANATSDVLIAKLDHTENDVRGVVIEGYPTIVLYPGGKKSESVVYQGSRSLDSLFDFIKENGHFDVDGKALYEEAQEKAAEEADADAELADEEDAIHDEL [C406A;C409A]
